Data as given in US20250051465A1 (published 2025).

Tests used:
[1] = target: T1, Macaca fascicularis LEPR extracellular domain expressed with a C-terminal myc-myc-hexahistidine tag … (Macaca fascicularis, UniProt Q9MYL0 22-837 (rhesus entry)); experiment: SPR, captured mAb, 25C
T1 construct: also called mfLEP.MMH
Method: (§1) Equilibrium dissociation constants (KD values) for LEPR binding to purified anti-LEPR monoclonal antibodies were determined using a real-time surface plasmon resonance biosensor using a Biacore 4000 instrument. All binding studies were performed in 10 mM HEPES, 150 mM NaCl, 3 mM EDTA, and 0.05% v/v Surfactant Tween-20, pH 7.4 (HBS-ET) running buffer at 25° C. and 37° C. The Biacore sensor surface was first derivatized by amine coupling with a monoclonal mouse anti-human Fc antibody (GE, #BR-1008-39) to capture anti-LEPR monoclonal antibodies. […] Kinetic association (kₐ) and dissociation (kd) rate constants were determined by fitting the real-time binding sensorgrams to a 1:1 binding model with mass transport limitation using Scrubber 2.0c curve-fitting software. Binding dissociation equilibrium constants (KD) and dissociative half-lives (t½) were calculated from the kinetic rate constants as: […]

[2] = target: T2, human LEPR extracellular domain expressed with a C-terminal mouse IgG2a Fc tag (hLEPR.mFc) (human); experiment: SPR, captured mAb, 25C
T2 construct: also called dimeric human LEPR
T2 chain: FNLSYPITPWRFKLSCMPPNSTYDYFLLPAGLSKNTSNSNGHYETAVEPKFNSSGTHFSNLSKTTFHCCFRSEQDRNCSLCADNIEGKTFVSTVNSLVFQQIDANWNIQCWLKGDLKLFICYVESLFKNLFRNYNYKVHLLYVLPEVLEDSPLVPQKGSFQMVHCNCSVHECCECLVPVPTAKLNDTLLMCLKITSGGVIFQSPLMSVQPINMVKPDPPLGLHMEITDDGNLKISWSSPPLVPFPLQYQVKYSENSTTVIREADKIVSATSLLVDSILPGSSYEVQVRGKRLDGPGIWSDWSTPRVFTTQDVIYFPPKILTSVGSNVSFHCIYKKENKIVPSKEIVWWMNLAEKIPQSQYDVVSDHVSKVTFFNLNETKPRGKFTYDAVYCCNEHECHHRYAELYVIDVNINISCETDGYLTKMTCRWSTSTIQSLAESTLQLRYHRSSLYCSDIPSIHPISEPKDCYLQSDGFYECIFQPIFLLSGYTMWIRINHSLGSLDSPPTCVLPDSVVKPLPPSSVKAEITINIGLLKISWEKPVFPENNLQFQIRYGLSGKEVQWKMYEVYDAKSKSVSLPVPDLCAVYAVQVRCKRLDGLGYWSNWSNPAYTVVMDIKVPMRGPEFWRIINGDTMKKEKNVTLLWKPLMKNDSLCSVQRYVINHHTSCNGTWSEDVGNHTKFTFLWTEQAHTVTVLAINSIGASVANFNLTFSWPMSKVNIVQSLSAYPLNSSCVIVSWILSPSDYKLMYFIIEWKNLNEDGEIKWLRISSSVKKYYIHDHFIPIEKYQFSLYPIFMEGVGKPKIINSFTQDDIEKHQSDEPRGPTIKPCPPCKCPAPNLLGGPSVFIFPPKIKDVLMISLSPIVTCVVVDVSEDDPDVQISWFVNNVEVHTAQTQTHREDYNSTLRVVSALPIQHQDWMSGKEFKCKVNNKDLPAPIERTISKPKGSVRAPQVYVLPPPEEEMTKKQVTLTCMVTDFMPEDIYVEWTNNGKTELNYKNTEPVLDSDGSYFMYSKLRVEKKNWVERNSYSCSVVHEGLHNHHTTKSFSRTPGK
Method: as §1

[3] = target: T3, human LEPR extracellular domain expressed with a C-terminal myc-myc-hexahistidine tag (hLEPR.mmh) (human, UniProt P48357 22-839); experiment: SPR, captured mAb, 25C
T3 construct: also called human LEPR-MMH; monomeric human LEPR
Method: as §1

[4] = target: T1, Macaca fascicularis LEPR extracellular …; experiment: SPR, captured mAb, 37C
Method: as §1

[5] = target: T2, human LEPR extracellular domain …; experiment: SPR, captured mAb, 37C
Method: as §1

[6] = target: T3, human LEPR extracellular domain …; experiment: SPR, captured mAb, 37C
Method: as §1

[7] = target: T4, human LEPR CRH1 (D1,D2,D3)-MMH (human, UniProt P48357 22-427, limits assumed); experiment: Luminex, myc-captured LEPR domain
T4 construct: domain: CRH1-Ig (D1,D2,D3); Transiently expressed, captured from supernatant on anti-myc beads; also called CRH1-Ig (D1, D2, D3)
Method: Aliquots of microspheres with immobilized anti-myc monoclonal antibodies, prepared as described above, were added individually to 1 mL of the each of these protein supernatants. The microspheres were gently mixed, incubated for two hours at 25° C., washed twice with 1 mL of DBPS, centrifuged to remove the supernatant and finally resuspended in 1 mL of DPBS buffer. Forty-eight μL of anti-myc IgG coupled microspheres from individual reactions with full length human LEPR and with each of the human LEPR domain proteins were withdrawn and mixed together in 3.6 mL of PBS+20 mg/mL BSA+0.05% sodium azide (blocking buffer).
From this mixed pool, 75 μL of microspheres were plated per well on a 96 well filter plate (Millipore, Cat. No: MSBVN1250) and mixed with 25 μL of individual anti-human LEPR monoclonal antibodies (0.5 or 5 µg/mL), incubated for two hours at 25° C. and then washed twice with 200 μL of DPBS with 0.05% Tween 20 (washing buffer). […] After 30 minutes, the samples were washed twice with 200 μL of washing buffer and resuspended in 150 μL of wash buffer. The Median Fluorescence intensity (MFI) of the microspheres was measured in a Luminex Analyzer.

B1: H4H17319P2 (antibody, human IgG4, V domains shown)
VH: QVQLVESGGSVVQPGRSLRLSCAASGFTFSTYAMYWVRQTPGKGLEWVAVLYSDGSNKYYIDSVKGRFTISRDTSTNTLYLQMSSLRADDSALYYCARLNWDYWYFDLWGRGTLVTVSS
VL: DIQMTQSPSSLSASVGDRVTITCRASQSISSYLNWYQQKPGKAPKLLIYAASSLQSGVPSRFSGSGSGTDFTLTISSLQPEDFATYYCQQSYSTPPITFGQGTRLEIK
notes: Fully human antibody with human IgG4 Fc (H4H prefix)
In the case of B1, the “100 nM mfLEP.MMH Bound (RU)” value [1] is reported as 83 RU, the Kd [1] is reported as 11.6 nM and the koff [1] is reported as 0.000463 s⁻¹. For the same binder, the kon [1] was 40000 M⁻¹ s⁻¹, the t½ [1] was 25 min and the “100 nM hLEPR-mFc Bound (RU)” value [2] was 69 RU. It also gave a Kd [2] of 3.45 nM, a koff [2] of 0.000164 s⁻¹ and a kon [2] of 47700 M⁻¹ s⁻¹. For the same binder, the t½ [2] was 70 min, the “100 nM hLEPR-MMH Bound (RU)” value [3] was 36 RU and the Kd [3] was 20.3 nM. It also gave a koff [3] of 0.000529 s⁻¹, a kon [3] of 26100 M⁻¹ s⁻¹ and a t½ [3] of 22 min. For the same binder, the “100 nM mfLEPR.MMH Bound (RU)” value [4] was 113 RU, the Kd [4] was 60.1 nM and the koff [4] was 0.00324 s⁻¹. The kon [4] was 53900 M⁻¹ s⁻¹, the t½ [4] was 3.6 min and the “100 nM hLEPR-mFc Bound (RU)” value [5] was 100 RU. For the same binder, the Kd [5] was 7.66 nM, the koff [5] was 0.000652 s⁻¹ and the kon [5] was 85100 M⁻¹ s⁻¹. The t½ [5] was 18 min, the “100 nM hLEPR-MMH Bound (RU)” value [6] was 44 RU and the Kd [6] was 96.3 nM. It also gave a koff [6] of 0.00341 s⁻¹, a kon [6] of 35400 M⁻¹ s⁻¹ and a t½ [6] of 3.4 min. For the same binder, the MFI [7] was 938 MFI.
